Source: article PMC6703946 (Molecular microbiology, 2019)

Target: T1, Spx with N-terminal His6 tag (S. aureus, UniProt P60379 1-131)
T1 sequence (looked up): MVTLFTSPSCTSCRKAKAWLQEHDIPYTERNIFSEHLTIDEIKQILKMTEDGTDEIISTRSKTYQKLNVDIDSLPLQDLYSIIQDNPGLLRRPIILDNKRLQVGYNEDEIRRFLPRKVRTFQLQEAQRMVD
Assay: native gel or EMSA

B1: αCTD (residues 245 to 314 of the RNA polymerase α subunit RpoA) (domain or fragment, S. aureus, UniProt Q2FW32 245-314, looked up)
chain: KEKVLEMSIEELDLSVRSYNCLKRAGINSVQELADKSEADMMKVRNLGRKSLEEVKYKLEDLGLGLRKED
Question: Does B1 bind?
Answer: binds
